From the Human Domainome abundance scans (Beltran et al. 2025)

B1: Formin-binding protein 4, residues 593 to 636; numbered along this chain, Q8N3X1 (parent)
chain: EINATPKGWSCHWDRDHRRYFYVNEQSGESQWEFPDGEEEEEES
B2: DnaJ homolog subfamily C member 2, residues 451 to 503; numbered along this chain, Q99543 (parent)
chain: SKNWSEDDLQLLIKAVNLFPAGTNSRWEVIANYMNIHSSSGVKRTAKDVIGKA

Variants of: B1
Assay: abundance fitness (aPCA) (normalised: wild type 0, dead -1); higher = more abundant; growth selection in yeast, the domain comes from the species named
Conditions: Homo sapiens

Abundance fitness of substitutions, site by site:
W32: A -0.226 | K -0.246 | S -0.23 | V -0.093 | C -0.305 | H -0.157
E25: Q 0.006 | A -0.179 | M -0.253 | R -0.175 | T -0.119 | C -0.355 | V -0.17 | P -0.449
P6: G -0.587
N24: G -0.611 | L -1 | A -0.62 | C -0.226 | V -1.08 | F -0.687 | I -1.14
Q31: V -0.153 | F -0.416 | P -0.819 | T -0.115 | N -0.742 | I -0.472 | S -0.293
E33: T -0.078 | A -0.064 | M -0.341 | W -0.429 | K -0.232 | S -0.184 | F -0.497 | G -0.168 | P -0.59 | V -0.456 | R -0.241 | H -0.408
E1: R -0.186 | N -0.304 | V -0.499 | M -0.019 | K 0.036
V23: A -0.347 | T 0.324 | F -0.367 | C -0.765 | D -0.513 | E -0.26
E38: T -0.014 | W -0.314 | R -0.023 | F -0.217 | G -0.051 | P 0.056
A4: M 0.036 | L 0.019 | N 0.2 | E 0.081 | S -0.306 | P 0.086
D14: M -0.682 | T -0.747 | A -0.514
T5: A -0.387 | K 0.67
F34: C -0.035 | L 0.015 | N -0.635 | D -0.222 | M -0.07 | Q 0.015 | R 0.081 | A -0.059 | W -0.13 | E -0.074
R18: W -0.571 | M -0.124 | P -0.635 | V -0.421 | H -0.11
I2: V -0.204 | E -0.173 | Y -0.02 | S 0.142 | A -0.518
E42: P 0.004 | A 0.04 | H -0.009 | K 0.022 | W -0.283 | I -0.409 | T 0.026 | L -0.073 | M 0.038
D36: L -0.176 | M -0.09 | F -0.232 | W -0.262 | P -0.025 | H -0.087
E43: D -0.02 | M -0.148 | K 0.021 | W -0.197 | S 0.041 | P 0.044 | V 0.046
C11: G 0.037 | K -0.025
E39: F -0.155 | L 0.075 | P 0.041 | M -0.109 | T 0.11 | I -0.074 | R -0.068 | W -0.191 | D -0.128 | V 0.008 | S -0.056
R15: P -0.118 | F -0.188 | D -0.007 | I 0.373 | E 0.123 | M -0.18 | H 0.116 | L -0.167 | G -0.032 | W -0.315 | Q 0.139 | Y -0.302 | N -0.05
W9: A -0.568 | S -0.368 | Q -0.498 | M -0.591 | R -0.817 | G -0.423 | V -0.629 | P -0.512 | C -0.56
G37: C -0.088 | M -0.216 | V -0.007 | T -0.026 | A -0.032
Y20: T -0.277 | N -0.059 | R -0.229 | D -0.64 | Q -0.285 | M -0.205 | A -0.3 | S -0.353
D16: A -0.234 | G -0.239 | S -0.24 | C -0.225 | L -0.447 | H -0.168 | T -0.064
H12: E -0.049 | P -0.822 | L -0.306 | D -0.646 | N -0.287 | T -0.407
E40: W -0.101 | Y 0.114 | P -0.011 | G 0.012 | Q -0.033 | M -0.127
Q26: P -1.06 | V -0.19 | A 0.017 | H -0.266 | R -0.085 | F -0.015 | K 0.18 | T -0.104
G28: W -1.14 | T -0.728 | F -1.22 | D -0.682 | A -0.567 | M -0.611 | K -0.199
S27: T 0.022 | F -0.988 | G -0.458 | R -0.422 | M -0.641 | A -0.611 | W -1.52
Y22: M -0.492 | Q -0.439 | T -0.402 | A -0.572
N3: H -0.128 | S -0.072 | M 0.323 | R -0.169 | E 0.185 | T -0.355 | L -0.239
E29: V -0.126 | P -0.883 | M -0.058 | Q -0.027
G8: Q -0.612 | K -0.408
P35: L -0.801 | M -0.734 | A -0.455 | S -0.651 | D -0.712 | F -0.854 | Y -0.995 | V -0.583
W13: A -0.571 | Y -0.189 | I -0.986 | E -0.456 | S -0.662 | D -0.71 | L -0.46
S30: P -0.174 | L -0.03 | T 0.067 | G -0.023
K7: D -0.123 | V -0.065 | H 0.125
F21: R 0.187 | W -0.275 | H -0.391 | K -0.067 | A -0.179 | C 0.058
R19: C -0.207 | G -0.485 | Y -0.864 | K -0.058 | M -0.21 | E -0.406
E41: K -0.048 | P 0.031 | Y -0.502 | G 0.041 | V 0.042 | R 0.007 | C 0.016 | S -0.139 | A 0.012 | T -0.011 | F -0.079 | Q 0.056
S44: V 0.253 | T -0.084 | H -0.013 | D -0.043 | Q 0.247 | M -0.536
H17: G -0.274 | Q 0.186 | L 0.007 | A 0.037 | E 0.088 | W -0.486 | M -0.235 | R 0.046 | K 0.207 | P -1 | V -0.208
S10: V -0.186 | L -0.345 | D -0.465 | M -0.389 | P -0.91 | R -0.265

Variants of: B2
Assay: as above
Conditions: Homo sapiens

Abundance fitness: each site, then its substitutions
N3: R -0.338 | H -0.025 | K -0.441 | E -0.554 | W -0.491 | F -0.037 | P -0.159 | V -0.227 | I 0.021 | D 0.015 | L -0.12 | T -0.114 | C -0.247 | S -0.234 | G -0.459
S1: W -0.721 | H -0.348 | F -0.112 | M -0.364 | L -0.32 | T -0.086 | G 0.092 | A -0.372 | Y -0.37 | V -0.063 | C -0.261 | P -0.547
K2: W -0.334 | V -0.365 | A -0.259 | Q -0.375 | E -0.096 | T -0.017 | S -0.059 | F -0.314 | G -0.159 | H -0.214 | N 0.076 | L -0.287 | I 0.1 | C -0.274 | D -0.044 | Y -0.138 | M -0.076 | R -0.184
W4: A -0.639 | C -0.704 | D -0.808
